Patent US20200297834A1

Columns and labels:
[1] = target: VEEV capsid (of VEEV TC-83, in infected Vero cells) (Venezuelan equine encephalitis virus, strain TC-83) (UniProt P05674); assay: confocal microscopy, line scan of z-stack, VEEV TC-83 infected Vero cells, 16 h
[2] = target: VEEV E2 (of VEEV TC-83, in infected Vero cells) (Venezuelan equine encephalitis virus, strain TC-83) (UniProt P05674); assay: as above

PKCδ (endogenous, Vero cells)
Pearson's correlation (co-localization) [1]: 0.771

PKCδ (endogenous, Vero cells) (enzyme)
Pearson's correlation (co-localization) [2]: 0.581
